Data published in patent US20060189528A1 (EVOGENIX, published 2006).
Positions count from the first letter of the chain named. In names and notes the source's numbering stands.

T1: RANKL (human, UniProt O14788 140-317, limits assumed)
T1 construct: also called Rank ligand
T1 sequence (looked up): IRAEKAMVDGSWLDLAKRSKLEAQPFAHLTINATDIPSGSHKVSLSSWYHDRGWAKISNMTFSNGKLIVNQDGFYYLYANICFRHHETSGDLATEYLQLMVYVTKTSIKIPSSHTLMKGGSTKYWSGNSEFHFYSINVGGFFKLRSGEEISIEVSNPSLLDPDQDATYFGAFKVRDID

B1: OVP I115A (Fc fusion)
chain: ETFPPKYLHYDEETSHQLLCDKCPPGTYLKQHCTAKWKTVCAPCPDHYYTDSWHTSDECLYCSPVCKELQYVKQECNRTHNRVCECKEGRYLEAEFCLKHRSCPPGFGVVQAGTPERNTVCKRCPDGFFSNETSSKAPCRKHTNCSVFGLLLTQKGNATHDNICSGNSESTQK
notes: Tested as C-terminal Fc-linked dimer with FLAG tag, from HEK 293 EBNA cells; signal peptide 1-21 processed; not shown: human Fc domain of vector pAPEX-3.Fc; C-terminal FLAG tag
B2: OVP I115M, R122Q (Fc fusion)
chain: B1 chain with A94M, R101Q
notes: Tested as C-terminal Fc-linked dimer with FLAG tag, from HEK 293 EBNA cells; signal peptide 1-21 processed; also called I115M plus: R122Q; not shown: human Fc domain of vector pAPEX-3.Fc; C-terminal FLAG tag
B3: OVP I115E (Fc fusion)
chain: B1 chain with A94E
notes: as for B1
B4: OVP I115T, K51R (Fc fusion)
chain: B1 chain with K30R, A94T
notes: as for B1
B5: OVP I115N (Fc fusion)
chain: B1 chain with A94N
notes: as for B1
B6: OVP I115M, L40S (Fc fusion)
chain: B1 chain with L19S, A94M
notes: Tested as C-terminal Fc-linked dimer with FLAG tag, from HEK 293 EBNA cells; signal peptide 1-21 processed; also called R23; not shown: human Fc domain of vector pAPEX-3.Fc; C-terminal FLAG tag
B7: OVP I115S (Fc fusion)
chain: B1 chain with A94S
notes: as for B1
B8: OVP I115M, N139D (Fc fusion)
chain: B1 chain with A94M, N118D
notes: as for B1
B9: OVP N102D (Fc fusion)
chain: B1 chain with N81D, A94I
notes: as for B1
B10: OVP I115M, F128S (Fc fusion)
chain: B1 chain with A94M, F107S
notes: Tested as C-terminal Fc-linked dimer with FLAG tag, from HEK 293 EBNA cells; signal peptide 1-21 processed; also called I115M plus: F128S; not shown: human Fc domain of vector pAPEX-3.Fc; C-terminal FLAG tag
B11: OVP I115G (Fc fusion)
chain: B1 chain with A94G
notes: as for B1
B12: OVP I115W (Fc fusion)
chain: B1 chain with A94W
notes: as for B1
B13: OVP I115M, R122D (Fc fusion)
chain: B1 chain with A94M, R101D
notes: Tested as C-terminal Fc-linked dimer with FLAG tag, from HEK 293 EBNA cells; signal peptide 1-21 processed; also called I115M plus: R122D; not shown: human Fc domain of vector pAPEX-3.Fc; C-terminal FLAG tag
B14: OVP I115M, F128I (Fc fusion)
chain: B1 chain with A94M, F107I
notes: Tested as C-terminal Fc-linked dimer with FLAG tag, from HEK 293 EBNA cells; signal peptide 1-21 processed; also called I115M plus: F128I; not shown: human Fc domain of vector pAPEX-3.Fc; C-terminal FLAG tag
B15: OVP I115T, K51R, S167G (Fc fusion)
chain: B1 chain with K30R, A94T, S146G
notes: as for B1
B16: OVP I115M, R122N (Fc fusion)
chain: B1 chain with A94M, R101N
notes: Tested as C-terminal Fc-linked dimer with FLAG tag, from HEK 293 EBNA cells; signal peptide 1-21 processed; also called I115M plus: R122N; not shown: human Fc domain of vector pAPEX-3.Fc; C-terminal FLAG tag
B17: OVP I115Y (Fc fusion)
chain: B1 chain with A94Y
notes: as for B1
B18: OVP I115R (Fc fusion)
chain: B1 chain with A94R
notes: as for B1
B19: OVP I115M, F128A (Fc fusion)
chain: B1 chain with A94M, F107A
notes: Tested as C-terminal Fc-linked dimer with FLAG tag, from HEK 293 EBNA cells; signal peptide 1-21 processed; also called I115M plus: F128A; not shown: human Fc domain of vector pAPEX-3.Fc; C-terminal FLAG tag
B20: OVP I115K (Fc fusion)
chain: B1 chain with A94K
notes: as for B1
B21: OVP I115L (Fc fusion)
chain: B1 chain with A94L
notes: as for B1
B22: OVP I115V (Fc fusion)
chain: B1 chain with A94V
notes: as for B1
B23: OVP I115M, F128L (Fc fusion)
chain: B1 chain with A94M, F107L
notes: Tested as C-terminal Fc-linked dimer with FLAG tag, from HEK 293 EBNA cells; signal peptide 1-21 processed; also called I115M plus: F128L; not shown: human Fc domain of vector pAPEX-3.Fc; C-terminal FLAG tag
B24: OVP I115M, F128T (Fc fusion)
chain: B1 chain with A94M, F107T
notes: Tested as C-terminal Fc-linked dimer with FLAG tag, from HEK 293 EBNA cells; signal peptide 1-21 processed; also called I115M plus: F128T; not shown: human Fc domain of vector pAPEX-3.Fc; C-terminal FLAG tag
B25: OVP I115M, R122S (Fc fusion)
chain: B1 chain with A94M, R101S
notes: Tested as C-terminal Fc-linked dimer with FLAG tag, from HEK 293 EBNA cells; signal peptide 1-21 processed; also called I115M plus: R122S; not shown: human Fc domain of vector pAPEX-3.Fc; C-terminal FLAG tag
B26: OVP I115T, K51R, R111H (Fc fusion)
chain: B1 chain with K30R, R90H, A94T
notes: as for B1
B27: OVP I115M (Fc fusion)
chain: B1 chain with A94M
notes: Ribosome display selected; tested as C-terminal Fc-linked dimer with FLAG tag, from HEK 293 EBNA cells; signal peptide 1-21 processed; also called 1R17; not shown: human Fc domain of vector pAPEX-3.Fc; C-terminal FLAG tag
B28: OVP I115D (Fc fusion)
chain: B1 chain with A94D
notes: as for B1
B29: OVP I115M, R122E (Fc fusion)
chain: B1 chain with A94M, R101E
notes: Tested as C-terminal Fc-linked dimer with FLAG tag, from HEK 293 EBNA cells; signal peptide 1-21 processed; also called I115M plus: R122E; not shown: human Fc domain of vector pAPEX-3.Fc; C-terminal FLAG tag
B30: OVP I115M, R122G (Fc fusion)
chain: B1 chain with A94M, R101G
notes: Tested as C-terminal Fc-linked dimer with FLAG tag, from HEK 293 EBNA cells; signal peptide 1-21 processed; also called I115M plus: R122G; not shown: human Fc domain of vector pAPEX-3.Fc; C-terminal FLAG tag

Experiments:
TRAIL [1] = target: T2, TRAIL (human, UniProt P50591 114-281); experiment: ELISA on coated TRAIL, Fc-linked dimers; EC50 ratio to OPG(22-194).Fc wt; reduction in binding (higher EC50)
T2 construct: also called TNF-related apoptosis inducing ligand; recombinant human TRAIL (R&D Systems)
T2 sequence (P50591 114-281 limits assumed): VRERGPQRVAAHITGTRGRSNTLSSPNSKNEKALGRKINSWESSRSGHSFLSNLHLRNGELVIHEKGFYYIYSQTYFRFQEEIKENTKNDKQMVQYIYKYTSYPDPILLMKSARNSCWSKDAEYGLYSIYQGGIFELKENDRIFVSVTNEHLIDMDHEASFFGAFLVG
Method: (§1) Purified mammalian-expressed OVP proteins are tested for binding to RANKL and TRAIL by ELISA. Wells are coated with RANKL at 5 μg/mL or TRAIL at 10 μg/mL in PBS O/N at 4° C., rinsed with PBS, blocked with 0.5% casein in PBS at room temp for 2 h, then rinsed again with PBS. Concentrations of OVPs to be tested are normalised to around 10 nM and then 50 μL applied to the antigen-coated wells in serial doubling dilutions over 6-7 wells for 1 h. […] All washes in between binding incubations are 3 times in PBS/0.05% Tween, then 3 times with PBS. Detection of bound OVPs is achieved with incubation of 50 μL anti-FLAG at […] for 20 min then 50 μL goat anti-mouse-peroxidase conjugate (BioRad) at 1:1500 for 20 min. TMB is used as enzyme substrate and then binding signal is measured at A_{450 nm}.

RANKL [2] = target: T1, RANKL; experiment: ELISA on coated RANKL, Fc-linked dimers; EC50 ratio to OPG(22-194).Fc wt; increase in binding (lower EC50)
Method: as §1

RANKL [3] = target: T1, RANKL; experiment: ELISA on coated RANKL, Fc-linked dimers; EC50 ratio to OPG(22-194).Fc wt; reduction in binding (higher EC50)
Method: as §1

TRAIL [4] = target: T2, TRAIL; experiment: ELISA on coated TRAIL, Fc-linked dimers; EC50 ratio to OPG(22-194).Fc wt; printed in parentheses (reduction in binding, higher EC50)
Method: as §1

TRAIL [5] = target: T2, TRAIL; experiment: ELISA on coated TRAIL, Fc-linked dimers; EC50 ratio to OPG(22-194).Fc wt; reduction in binding (higher EC50); # by extrapolation
Method: as §1

RANKL [6] = target: T1, RANKL; experiment: ELISA on coated RANKL, Fc-linked dimers; EC50 ratio to OPG(22-194).Fc wt; printed without parentheses
Method: as §1

TRAIL [7] = target: T2, TRAIL; experiment: ELISA on coated TRAIL, Fc-linked dimer
Method: as §1

Row | Binder | TRAIL fold change cf wt (TRAIL [1]) [fold] | RANKL fold change cf wt (RANKL [2]) [fold] | RANKL fold change cf wt (RANKL [3]) [fold] | also measured
1 | B1 | 2.5 | 2.25 | – | –
2 | B2 | 3 | 2.5 | – | –
3 | B3 | > 250 | – | 2.25 | –
4 | B4 | – | – | 1.75 | TRAIL fold change cf wt (TRAIL [4]): 0.8 fold
5 | B5 | – | – | 1.1 | TRAIL fold change cf wt (TRAIL [5]): 390 fold
6 | B6 | > 250 | 1.1 | – | –
7 | B7 | 3.1 | – | 1.4 | –
8 | B8 | 60 | – | 1.75 | –
9 | B9 | – | 1.1 | – | TRAIL fold change cf wt (TRAIL [4]): 1 fold
10 | B10 | 50 | – | – | RANKL fold change cf wt (RANKL [6]): 1 fold
11 | B11 | – | 2.1 | – | TRAIL fold change cf wt (TRAIL [5]): > 125 fold
12 | B12 | 5 | – | 1.4 | –
13 | B13 | 23 | – | 6 | –
14 | B14 | – | – | 2.1 | TRAIL fold change cf wt (TRAIL [5]): 250 fold
15 | B15 | 15 | 1.5 | – | –
16 | B16 | > 250 | – | 1.1 | –
17 | B17 | 3 | 1.1 | – | –
18 | B18 | – | – | 2.3 | TRAIL fold change cf wt (TRAIL [5]): 50 fold
19 | B19 | 2 | 1.2 | – | –
20 | B20 | – | – | 60 | binding result (TRAIL [7]): no binding
21 | B21 | 4.3 | 1.75 | – | –
22 | B22 | 4 | 1.5 | – | –
23 | B23 | – | 1.2 | – | TRAIL fold change cf wt (TRAIL [5]): 250 fold
24 | B24 | 7 | – | 3.3 | –
25 | B25 | 3.5 | 1.5 | – | –
26 | B26 | 7.5 | 1.5 | – | –
27 | B27 | 25 | 1.2 | – | –
28 | B28 | > 125 | 1.5 | – | –
29 | B29 | > 250 | – | 1.2 | –
30 | B30 | 12.5 | – | – | RANKL fold change cf wt (RANKL [6]): 1 fold
